# In patent publication US20230020729A1 (Memorial Sloan Kettering, published 2023):
# Substitutions are numbered along the chain they refer to.
# T1: human Fc Receptor-Like 5 (FcRL5), full length, expressed on cells (human, UniProt Q96RD9 16-977)
# T1 construct: also called CD307e; IRTA2
# T1 sequence: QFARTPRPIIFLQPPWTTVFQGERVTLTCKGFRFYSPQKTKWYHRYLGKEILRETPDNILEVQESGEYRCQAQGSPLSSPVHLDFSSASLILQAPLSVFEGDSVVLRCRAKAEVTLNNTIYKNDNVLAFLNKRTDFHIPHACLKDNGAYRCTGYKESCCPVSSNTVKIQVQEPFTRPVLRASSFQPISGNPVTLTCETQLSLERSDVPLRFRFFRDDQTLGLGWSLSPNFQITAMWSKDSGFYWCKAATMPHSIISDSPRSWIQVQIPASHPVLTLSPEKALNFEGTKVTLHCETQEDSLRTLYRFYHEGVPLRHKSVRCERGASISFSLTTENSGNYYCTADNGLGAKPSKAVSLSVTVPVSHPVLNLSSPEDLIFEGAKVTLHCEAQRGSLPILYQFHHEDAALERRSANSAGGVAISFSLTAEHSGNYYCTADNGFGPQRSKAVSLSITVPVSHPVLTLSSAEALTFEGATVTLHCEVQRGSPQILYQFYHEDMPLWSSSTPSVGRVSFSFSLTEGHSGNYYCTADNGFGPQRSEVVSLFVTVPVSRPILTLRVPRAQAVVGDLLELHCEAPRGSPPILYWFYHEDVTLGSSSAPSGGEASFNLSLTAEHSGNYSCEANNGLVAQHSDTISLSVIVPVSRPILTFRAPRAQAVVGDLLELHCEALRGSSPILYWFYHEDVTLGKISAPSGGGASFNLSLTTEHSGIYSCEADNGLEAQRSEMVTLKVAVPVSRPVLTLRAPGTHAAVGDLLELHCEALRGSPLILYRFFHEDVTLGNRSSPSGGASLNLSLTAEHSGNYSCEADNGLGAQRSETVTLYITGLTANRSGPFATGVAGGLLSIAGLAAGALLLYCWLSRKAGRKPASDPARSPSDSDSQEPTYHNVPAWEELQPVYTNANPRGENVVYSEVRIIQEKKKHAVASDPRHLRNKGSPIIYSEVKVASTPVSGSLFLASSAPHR
# B1: ET200-097 scFv (scFv)
# scFv: LPVLTQPPSVSVSPGQTAIITCSGDKLGEKYVSWYQQKPGQSPVLVIDQDTRRPSGIPERFSGSNSGTTATLTISGTQAMDEADYYCQAWDRGVVFGGGTKLTVLGSRGGGGSGGGGSGGGGSLEMAEVQLVESGGDLVQPGRSLRLSCAASGFTFNDYAMHWVRQAPGKGLEWVSGISWSGNNIGYADSVKGRFTISRDNAKNSLYLQMNSLRAEDTALYYCAKDSIRYGITWGGFDYWGQGTLVTVSS
# notes: VL-linker-VH; screened as scFv phage clone
# B2: ET200-007 scFv (scFv)
# scFv: SYVLTQPLSVSVAPGKTARITCGGNNIGSKTVHWYQQKPGQAPVLVIYYDSDRPSGIPERFSGSNSGNTATLTISRVEAGDEADYYCQVWDSSSDHRVFGGGTKLTVLGSRGGGGSGGGGSGGGGSLEMAQVQLQESGPGLVKPSETLSLTCNVSGYSISSGYFWGWIRQPPGKGLEWIGSIYHSRSTYYNPSLKSRVTISVDTSKNQFSLKLNSVTAADTAVYYCARGYGYFDYWGQGTLVTVSS
# notes: as for B1
# B3: ET200-106 scFv (scFv)
# scFv: SYELTQPPAASGTPGQRVTISCSGGVSNIGSGALNWYQQLPGTAPKLLIYSYNQRPSGVSDRFSGSRSATSASLAISGLQSEDEADYYCATWDDSVNGWVFGGGTKLTVLGSRGGGGSGGGGSGGGGSLEMAEVQLVESGAEVKKPGDSVKVSCKPSGYNFLNYGINWVRQAPGQGLEWMGWISTYTGNTNYAQKLQGRVTFTTDTSTSTAYMEMRSLRSDDTAVYYCARQQGGGWYDVWGQGTLVTVSS
# notes: as for B1
# B4: ET200-081 scFv (scFv)
# scFv: QSALTQPASVSGSPGQSITISCTGTSSDIGGYNYVSWYQQHPGKAPKLMIYDVSNRPSGVSNRFSGSKSGNTASLTISGLQAEDEADYYCISYTRTWNPYVFGSGTKVTVLGSRGGGGSGGGGSGGGGSLEMAEVQLVQSGGGVVQPGGSLRLSCAASGFTFDDYAMHWVRQAPGKGLEWVSLISGDGGSTYYADSVKGRFTISRDNSKNSLYLQMNSLRTEDTALYYCAKDRAAAGYYYYGMDVWGQGTTVTVSS
# notes: as for B1
# B5: ET200-107 scFv (scFv)
# scFv: QSVVTQPPSVSAAPGEKVTISCSGSNFNVGNNDVSWYQQLPGAAPKLLIYDNNKRPSGIPDRFSGSKSGTSATLDITGLHSDDEADYYCGTWDSSLNTGGVFGTGTKVTVLGSRGGGGSGGGGSGGGGSLEMAEVQLVQSGAEVKKPGASVKVSCKASGYTFTSYTISWVRQAPGQGLEWMGWISTYNGLTNYAQNLQGRVTMTTDTFTTTAYMELRSLRSDDTAVYYCVREGSPDYGDFASFDYWGQGTLVTVSS
# notes: as for B1
# B6: ET200-105 scFv (scFv)
# scFv: SYVLTQPPSVSVSPGQTASITCSGDRLTNKYVSWYQQKPGQSPVLVIYEDAKRPSGIPARFSGSNSGNTATLTISGTQAMDESEYYCQAWDSSVVVFGGGTKLTVLGSRGGGGSGGGGSGGGGSLEMAEVQLVESGGGLVQPGRSLRLSCAASGFTFDDYAMHWVRQAPGKGLEWVSGISWNSGSIGYADSVKGRFTISRDNAKNSLYLQMNSLRDEDTALYYCAKDRGGGVIVKDAFDIWGQGTMVTVSS
# notes: as for B1
# B7: ET200-109 scFv (scFv)
# scFv: LPVLTQPPSASATPGQRVTISCSGTTSNIGSNTVHWYQQLPGTAPKLLIYNNNQRPSGVPDRFSGSKSGTSASLAISGLRSEDEATYSCATWDDSLSGVVFGGGTKLTVLGSRGGGGSGGGGSGGGGSLEMAEVQLVQSGAEVKKPGSSVKVSCKASGGTFSSYAISWVRQAPGQGLEWMGGIIPIFGTANYAQKFQGRVTITADESTSTAYMELSSLRSEDTAVYYCARDPAYGDYEYDAFDIWGQGTMVTVSS
# notes: as for B1
# B8: ET200-098 scFv (scFv)
# scFv: QPVLTQPPSVSKGLRQTATLTCTGNSNNVGNLGVAWLQQHQGHPPKLLSYRNNNRPSGISERLSASRSGNTASLTITGLQPEDEADYYCSAWDSSLSAWVFGGGTKLTVLGSRGGGGSGGGGSGGGGSLEMAEVQLVESGGVVVQPGGSLRLSCAASGFTFDDYAMHWVRQAPGKGLEWVSLINWDGGSTYYADSVKGRFTISRDNSKNSLYLQMNSLRAEDTALYYCAKGMGLRAFDYWGQGTLVTVSS
# notes: as for B1
# B9: ET200-101 scFv (scFv)
# scFv: QAVLTQPPSASGAPGQRVTVSCSGSNSNIGSNYVNWYQQFPGTAPKLLMYSSSQRPSGVPDRFSGSKSGTSASLAISGLHSEDEADYYCATWDDSLNAWVFGGGTKLTVLGSRGGGGSGGGGSGGGGSLEMAEVQLVQSGAEVRKPGASVKVSCKTSGYTFTWYAIHWVRQAPGQRLEWMGWINAGSGNTKYSQKFQGRVTLTRDTSASTAYMELSSLRSDDTAVYYCARPNNYGSGGDVFDIWGQGTMVTVSS
# notes: as for B1
# B10: ET200-110 scFv (scFv)
# scFv: QSVLTQPPSASGTPGQRVTISCSGSSSNIGTNGVNWFQQFPGTAPKLLIYTNDQRPSGVPDRFSGSKSGTSASLAISGLQSADEADYYCAVWDHSLNGPVFGGGTKLTVLGSRGGGGSGGGGSGGGGSLEMAQVQLVQSGAEVKKPGSSVKVSCKASGGTFSSYAISWVRQAPGQGLEWMGGIIPIFGTANYAQKFQGRVTITADESTSTAYMELSSLRSEDTAVYYCARGAGFDAFDIWGQGTMVTVSS
# notes: as for B1
# B11: ET200-079 scFv (scFv)
# scFv: SYELTQPPSASGTPGQRVTISCSGSSSNIGSNYVYWYQQLPGTAPKLFIYRNNQRPSGVPDRFSGSKSGTSASLAISGLRSEDEADYYCAAWDDSLSGYLFGTGTKVTVLGSRGGGGSGGGGSGGGGSLEMAEVQLVESGGGLVQPGRSLRLSCAASGFTFDDYAMHWVRQAPGKGLEWVSGISWNSGSIGYADSVKGRFTISRDNAKNSLYLQMNSLRAEDTALYYCANGDSNYYYGMDVWGQGTTVTVSS
# notes: as for B1
# B12: ET200-108 scFv (scFv)
# scFv: QSVLTQPPSVSAPPGQKVTISCSGSSSNIGNNYVSWYQQFPGTAPKLLIYDNNKRPSGISDRFSGSKSGTSATLGIAGLQTGDEADYYCGTWDTSLSGFYVFGSGTKVTVLGSRGGGGSGGGGSGGGGSLEMAEVQLVQSGAEVKKPGASVKVSCKASGYTFTSYTISWVRQAPGQGLEWMGWISTYNGLTNYAQNLQGRVTMTTDTFTTTAYMELRSLRSDDTAVYYCVREGSPDYGDFASFDYWGQGTLVTVSS
# notes: as for B1
# B13: ET200-008 scFv (scFv)
# scFv: QSALTQPASVSGSPGQSITISCTGTSSDVGGYNYVSWYQQHPGKAPKLMIYDVSNRPSGVSNRFSGSKSGNTASLTISGLQAEDEADYYCSSYTSSSTSKVFGGGTKLTVLGSRGGGGSGGGGSGGGGSLEMAEVQLVESGGGVVRPGGSLRLSCAASGFTFGDYGMSWVRQAPGKGLEWVSGINWNGGSTGYADSVKGRFTISRDNAKNSLYLQMNSLRAEDTAVYYCARSKYNFHVYYDYWGQGTLVTVSS
# notes: as for B1
# B14: ET200-100 scFv (scFv)
# scFv: NFMLTQPHSVSESPGKTVTISCTRSSGSIASNFVQWYQQRPGSAPTPMIYEDNNRPPGVPDRFSASVDSSSNSASLTISGLKTEDEADYYCQSYDTSNVVFGGGTKLTVLGSRGGGGSGGGGSGGGGSLEMAEVQLVESGGGLVQPGGSLRLSCAASGFTFSSYEMNWVRQAPGKGLEWVSYISSSGSTIYYADSVKGRFTISRDNAKNSLYLQMNSLRAEDTAVYYCARWDYGMDVWGQGTTVTVSS
# notes: as for B1
# B15: ET200-104 scFv (scFv)
# scFv: B14 scFv with F33Y, P47T, M48V, N54Q, P57S, A65G, V67I, T96S, L107V
# notes: as for B1
# B16: ET200-102 scFv (scFv)
# scFv: QSVVTQPPSVSAAPGQKVTISCSGSSSNIGNNYVSWYQQLPGTAPKLLIYDNNKRPSGIPDRFSGSKSGTSATLGITGLQTGDEADYYCGTWDSSLSAYVFGTGTKVTVLGSRGGGGSGGGGSGGGGSLEMAQVQLVQSGAEVKKPGASVKVSCKASGYTFTNYALHWVRQAPGQGLEWMAWINGGNGNTKYSQNFQGRVTITRDTSASTAYMELSSLRSEDTAVYYCAKPEETAGTIHFDYWGQGTPVTVSS
# notes: as for B1
# B17: ET200-099 scFv (scFv)
# scFv: QSVLTQPPSASGTPGQRVTISCSGSSSNIGSNTVNWYQQLPGTAPKLLIYSNDQRPSGVPDRFSGSKSGTSASLAISGLQSEDEADYYCASWDDSLNGRYVFGTGTKVTVLGSRGGGGSGGGGSGGGGSLEMAQVQLVQSGAEVRKPGASVKVSCKTSGYTFSWYAIHWVRQAPGQRLEWMGWINAGNGNTKYSQKFQGRVSLTRDTSASTAYMELSSLRSDDTAVYYCARPDNYGSGGDVFDIWGQGTMVTVSS
# notes: as for B1
# B18: ET200-103 scFv (scFv)
# scFv: QAVLTQPHSVSESPGKTVTISCTRSSGSIASNYVQWYQQRPGSAPTTVIYEDNQRPSGVPDRFSGSIDSSSNSASLTISGLKTEDEADYYCQSYDSTITVFGGGTKLTVLGSRGGGGSGGGGSGGGGSLEMAQVQLVQSGAEVKKPGSSVKVSCKASGGTFSSYAISWVRQAPGQGLEWMGGIIPIFGTANYAQKFQGRVTITADESTSTAYMELSSLRSEDTAVYYCAGEGYYDSSGYSNGDAFDIWGQGTMVTVSS
# notes: as for B1
# Molecular target: T1, human Fc Receptor-Like 5 (FcRL5), full …
# Experiment: scFv phage: ELISA on His-tag FcRL5, flow cytometry on FcRL5-overexpressing 3T3 and Raji cells
row,Binder,binding result
1,B1,binds
2,B2,binds
3,B3,binds
4,B4,binds
5,B5,binds
6,B6,binds
7,B7,binds
8,B8,binds
9,B9,binds
10,B10,binds
11,B11,binds
12,B12,binds
13,B13,binds
14,B14,binds
15,B15,binds
16,B16,binds
17,B17,binds
18,B18,binds
